Results from publication PMC10397247.
Values belong to the binder of their own block, whether it stands above or below them.

What was measured:
Experiment in all cases: two-hybrid library CCmax;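 also: natural log of median RNA to DNA barcode read ratio; higher means stronger binding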
4H310-AA = biological target: T1, 4H310-AA; settings: mean of both orientations
T1 chain: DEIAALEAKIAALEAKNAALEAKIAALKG

4H710-AA = biological target: T2, 4H710-AA; settings: mean of both orientations
T2 chain: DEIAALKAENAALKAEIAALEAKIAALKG

4H570-AA = biological target: T3, 4H570-AA; settings: mean of both orientations
T3 chain: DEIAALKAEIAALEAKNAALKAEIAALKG

4H3130-AA = biological target: T4, 4H3130-AA; settings: mean of both orientations
T4 chain: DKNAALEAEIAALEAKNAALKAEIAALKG

4H3016-AA = biological target: T5, 4H3016-AA; settings: mean of both orientations
T5 chain: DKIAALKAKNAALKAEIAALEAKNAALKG

4H745-AA = biological target: T6, 4H745-AA; settings: mean of both orientations
T6 chain: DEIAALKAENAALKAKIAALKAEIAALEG

4H909-AA = biological target: T7, 4H909-AA; settings: mean of both orientations
T7 chain: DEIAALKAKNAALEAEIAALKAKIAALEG

4H3753-AA = biological target: T8, 4H3753-AA; settings: mean of both orientations
T8 chain: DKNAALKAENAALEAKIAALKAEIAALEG

4H891-AA = biological target: T9, 4H891-AA; settings: mean of both orientations
T9 chain: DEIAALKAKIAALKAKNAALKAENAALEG

4H3120-AA = biological target: T10, 4H3120-AA; settings: mean of both orientations
T10 chain: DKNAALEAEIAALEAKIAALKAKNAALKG

4H485-AA = biological target: T11, 4H485-AA; settings: mean of both orientations
T11 chain: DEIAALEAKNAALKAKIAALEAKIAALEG

4H850-AA = biological target: T12, 4H850-AA; settings: mean of both orientations
T12 chain: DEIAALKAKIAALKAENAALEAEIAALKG

4H3410-AA = biological target: T13, 4H3410-AA; settings: mean of both orientations
T13 chain: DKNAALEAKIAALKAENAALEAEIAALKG

4H3395-AA = biological target: T14, 4H3395-AA; settings: mean of both orientations
T14 chain: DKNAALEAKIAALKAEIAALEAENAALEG

4H3381-AA = biological target: T15, 4H3381-AA; settings: mean of both orientations
T15 chain: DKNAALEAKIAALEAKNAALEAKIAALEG

4H3697-AA = biological target: T16, 4H3697-AA; settings: mean of both orientations
T16 chain: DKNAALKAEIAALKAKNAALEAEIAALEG

4H2865-AA = biological target: T17, 4H2865-AA; settings: mean of both orientations
T17 chain: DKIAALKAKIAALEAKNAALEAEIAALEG

4H3009-AA = biological target: T18, 4H3009-AA; settings: mean of both orientations
T18 chain: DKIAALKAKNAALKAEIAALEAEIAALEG

4H3865-AA = biological target: T19, 4H3865-AA; settings: mean of both orientations
T19 chain: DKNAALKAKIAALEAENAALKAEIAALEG

4H629-AA = biological target: T20, 4H629-AA; settings: mean of both orientations
T20 chain: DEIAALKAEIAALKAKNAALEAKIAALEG

4H536-AA = biological target: T21, 4H536-AA; settings: mean of both orientations
T21 chain: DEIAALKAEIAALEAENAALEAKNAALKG

4H3590-AA = biological target: T22, 4H3590-AA; settings: mean of both orientations
T22 chain: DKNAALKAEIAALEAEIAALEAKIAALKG

4H797-AA = biological target: T23, 4H797-AA; settings: mean of both orientations
T23 chain: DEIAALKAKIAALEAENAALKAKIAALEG

4H3165-AA = biological target: T24, 4H3165-AA; settings: mean of both orientations
T24 chain: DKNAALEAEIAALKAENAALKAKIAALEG

4H930-AA = biological target: T25, 4H930-AA; settings: mean of both orientations
T25 chain: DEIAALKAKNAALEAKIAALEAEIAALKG

4H2725-AA = biological target: T26, 4H2725-AA; settings: mean of both orientations
T26 chain: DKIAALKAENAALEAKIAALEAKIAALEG

4H94-AA = biological target: T27, 4H94-AA; settings: mean of both orientations
T27 chain: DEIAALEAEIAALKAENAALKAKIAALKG

4H458-AA = biological target: T28, 4H458-AA; settings: mean of both orientations
T28 chain: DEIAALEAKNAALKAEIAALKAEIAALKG

4H2698-AA = biological target: T29, 4H2698-AA
T29 chain: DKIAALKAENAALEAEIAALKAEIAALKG

4H775-AA = biological target: T30, 4H775-AA
T30 chain: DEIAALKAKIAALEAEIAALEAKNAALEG

4H816-AA = biological target: T31, 4H816-AA; settings: mean of both orientations
T31 chain: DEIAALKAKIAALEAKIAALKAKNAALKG

4H87-AA = biological target: T32, 4H87-AA; settings: mean of both orientations
T32 chain: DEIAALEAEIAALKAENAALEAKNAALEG

interaction score (4H310-AA): -0.185
interaction score (4H710-AA): 1.79
interaction score (4H570-AA): 0.35
interaction score (4H3130-AA): 1.19
interaction score (4H3016-AA): 0.539
interaction score (4H745-AA): 2.2
interaction score (4H909-AA): -0.0319
interaction score (4H3753-AA): -1
interaction score (4H891-AA): -1.59
interaction score (4H3120-AA): -1.3
interaction score (4H485-AA): 1.49
interaction score (4H850-AA): -0.992
interaction score (4H3410-AA): -1.56
interaction score (4H3395-AA): -1.65
interaction score (4H3381-AA): -0.904
interaction score (4H3697-AA): -1.12
interaction score (4H2865-AA): 0.889
interaction score (4H3009-AA): 2.02
interaction score (4H3865-AA): -1.07
interaction score (4H629-AA): -1.54
interaction score (4H536-AA): -1.49
interaction score (4H3590-AA): -0.95
interaction score (4H797-AA): -1.25
interaction score (4H3165-AA): -1.39
interaction score (4H930-AA): -0.113
interaction score (4H2725-AA): -1.02
interaction score (4H94-AA): -0.915
interaction score (4H458-AA): 2.26
interaction score (4H2698-AA): 2.27
B1: 4H2698-AA (peptide)
chain: DKIAALKAENAALEAEIAALKAEIAALKG

interaction score (4H775-AA): 1.62
interaction score (4H816-AA): 1.66
interaction score (4H87-AA): -1.7
B2: 4H775-AA (peptide)
chain: DEIAALKAKIAALEAEIAALEAKNAALEG
